Where “and” joins values, the source holds several entries; their conditions need not be identical. Identical values can stand only once.

What is called Kd is the free concentration of one partner at which half of the binding sites on the other are occupied at equilibrium, for simple one-to-one binding. Read a high Kd as a looser complex.

Test [1] addresses T1, "Elastikine" human IL-23 (single chain FLAG-tag:GLU-tag:human p40:elasti-linker:human p19, expressed in 293T … (human, UniProt P29460 23-328)). In words: cell-based or functional assay.
Test [2] addresses T2, "Non-linked" human IL-23 (human p40 coexpressed in 293T cells with human p19:FLAG-tag peptide) (human, UniProt P29460 23-328).
T2 sequence 1: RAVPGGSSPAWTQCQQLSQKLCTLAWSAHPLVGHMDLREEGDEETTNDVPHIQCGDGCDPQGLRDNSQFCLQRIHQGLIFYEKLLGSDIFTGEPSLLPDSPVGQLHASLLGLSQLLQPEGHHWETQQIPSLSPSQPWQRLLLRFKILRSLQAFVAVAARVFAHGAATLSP
T2 sequence 2: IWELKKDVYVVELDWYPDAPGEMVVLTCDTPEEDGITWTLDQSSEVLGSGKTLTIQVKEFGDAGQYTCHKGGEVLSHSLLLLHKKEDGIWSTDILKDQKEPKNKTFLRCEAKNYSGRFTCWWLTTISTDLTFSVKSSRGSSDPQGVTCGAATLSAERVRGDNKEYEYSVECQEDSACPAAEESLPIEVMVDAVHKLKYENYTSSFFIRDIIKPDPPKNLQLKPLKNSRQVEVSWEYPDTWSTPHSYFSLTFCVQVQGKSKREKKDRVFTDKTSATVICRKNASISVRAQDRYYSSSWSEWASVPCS
In words: cell-based or functional assay.

Test [3] concerns the target T3, non-tagged, non-linked native human IL-23p19/p40 coexpressed in SF9 cells (eBioscience CAT No. 34-8239) (human, UniProt P29460 23-328).
T3 sequence 1: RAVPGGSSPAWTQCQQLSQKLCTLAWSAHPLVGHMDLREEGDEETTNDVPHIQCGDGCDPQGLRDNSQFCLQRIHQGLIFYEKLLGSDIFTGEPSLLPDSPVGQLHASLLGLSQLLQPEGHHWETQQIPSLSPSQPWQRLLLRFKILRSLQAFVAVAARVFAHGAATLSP
T3 sequence 2: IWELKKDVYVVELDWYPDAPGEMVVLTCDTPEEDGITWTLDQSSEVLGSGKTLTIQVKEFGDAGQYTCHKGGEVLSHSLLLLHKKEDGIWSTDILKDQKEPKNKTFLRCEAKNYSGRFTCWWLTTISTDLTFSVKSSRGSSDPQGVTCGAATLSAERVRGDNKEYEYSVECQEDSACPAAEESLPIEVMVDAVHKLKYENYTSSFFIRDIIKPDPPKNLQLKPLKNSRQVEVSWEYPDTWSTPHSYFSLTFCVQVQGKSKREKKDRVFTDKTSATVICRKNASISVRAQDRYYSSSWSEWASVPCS
In words: cell-based or functional assay.

The target in test [4] is T1, "Elastikine" human IL-23 (single chain …). In words: KinExA, solution equilibrium. Here is the method: The equilibrium dissociation constant (Kd) for anti human IL-23 antibodies is determined using the KinExA 3000 instrument. Sapidyne Instruments Inc., Boise Id., USA KinExA uses the principle of the Kinetic Exclusion Assay method based on measuring the concentration of uncomplexed antibody in a mixture of antibody, antigen and antibody-antigen complex. The concentration of free antibody is measured by exposing the mixture to a solid-phase immobilized antigen for a very brief period of time. In practice, this is accomplished by flowing the solution phase antigen-antibody mixture past antigen-coated particles trapped in a flow cell. Data generated by the instrument are analyzed using custom software. Equilibrium constants are calculated using a mathematical theory based on the following assumptions:
98 micron PMMA particles (Sapidyne, Cat No. 440198) are coated with biotinylated rhIL-23 according to Sapidyne “Protocol for coating PMMA particles with biotinylated ligands having short or nonexistent linker arms”. To make biotinylated rhIL-23, EZ-link TFP PEO-biotin (Pierce, Cat. No. 21219) is used according to manufacturer's recommendations (Pierce bulletin 0874). Experimental procedures are done according to the KinExA 3000 manual.
KinExA experiments are performed essentially as described at Example 3 of U.S. Patent Application Publication No. 2007/0048315.
A general note: In KinExA the mixture passes briefly over coated beads that capture the unbound partner.

The target in test [5] is T4, "N222Q" human IL-23 (elastikine sequence with Asn222 to Gln in the p40 subunit, expressed in SF9 cells) (human, UniProt P29460 23-328).
T4 chain 1: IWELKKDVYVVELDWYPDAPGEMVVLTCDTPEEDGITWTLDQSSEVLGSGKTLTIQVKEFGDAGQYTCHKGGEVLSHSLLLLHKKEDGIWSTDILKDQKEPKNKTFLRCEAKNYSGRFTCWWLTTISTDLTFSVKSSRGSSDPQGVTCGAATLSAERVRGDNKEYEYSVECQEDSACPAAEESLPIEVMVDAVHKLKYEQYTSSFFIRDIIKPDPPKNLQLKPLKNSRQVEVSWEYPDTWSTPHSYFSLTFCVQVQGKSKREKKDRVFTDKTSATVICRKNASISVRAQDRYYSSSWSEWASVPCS
T4 chain 2: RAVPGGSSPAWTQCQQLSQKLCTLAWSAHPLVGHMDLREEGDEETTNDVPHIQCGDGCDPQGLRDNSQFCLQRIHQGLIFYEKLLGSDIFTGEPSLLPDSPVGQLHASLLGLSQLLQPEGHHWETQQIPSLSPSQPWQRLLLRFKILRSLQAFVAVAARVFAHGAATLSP
In words: BIAcore SPR, antibody immobilised on CM5 chip, IL-23 in solution. Here is the method:
(§1) BIAcore determinations are performed essentially as described at Example 4 of U.S. Patent Application Publication No. 2007/0048315. Briefly, ligands (anti-IL-23 mAbs) are immobilized on a BIAcore CM5 sensor chip using standard amine-coupling procedure. IL-23 (various forms) is diluted in PBS to produce various concentrations. Kinetic constants for the various interactions are determined using BIAevaluation software 3.1. The Kd is determined using the calculated dissociation and association rate constants. In certain experiments, proteins are used at the following concentrations: anti-IL-23 mAb hu7G10 in PBS at 0.33 mg/mL; anti-IL-23 mAb hu6H12 in PBS at 0.2 mg/mL; bac-wt human IL-23 in PBS at 0.30 mg/mL; eBioscience human IL-23 in PBS at 0.10 mg/mL; N222Q human IL-23 in PBS at 0.33 mg/mL.

The target in test [6] is T3, non-tagged, non-linked native human …. The description is as above. Here is the method:
as §1

B1: humanized anti-human IL-23p19 antibody 6H12 (antibody, human IgG1, kappa, V domains shown)
VH: QVQLVQSGAEVKKPGASVKVSCKASGYTFNRYLIHWVRQAPGQGLEWMGYINPNNAGTNYNEKFKGRVTMTTDTSTSTAYMELRSLRSDDTAVYYCARNWDQAYWGQGTLVTVSS
VL: DIQMTQSPSSLSASVGDRVTITCRASQSISDYLHWYQQKPGKAPKLLIYYTSQSISGVPSRFSGSGSGTDFTLTISSLQPEDFATYYCQNGHSFPFTFGQGTKVEIKR
notes: Full-length humanized antibody, human IgG1 / kappa; also called hu6H12; hum6H12
With B1, the results for the “IC50 (pM), blocking of Ba/F3 cell proliferation” value in test [1], in test [2] and in test [3] were 27 pM, 4000 pM and 3200 pM, respectively. Besides, the dissociation constant (Kd) in test [4] is 0.028 nM and 0.036 nM; in test [5] it was 0.5 nM; in test [6], 4.1 nM.

The record behind these values is patent US20130039916A1 (Merck Sharp & Dohme, published 2013).
